Data taken from IntAct's records for PubMed 9845368.

B1: Phytochrome A (Arabidopsis thaliana (Mouse-ear cress)), P14712 (parent)
chain: MSGSRPTQSSEGSRRSRHSARIIAQTTVDAKLHADFEESGSSFDYSTSVRVTGPVVENQPPRSDKVTTTYLHHIQKGKLIQPFGCLLALDEKTFKVIAYSENASELLTMASHAVPSVGEHPVLGIGTDIRSLFTAPSASALQKALGFGDVSLLNPILVHCRTSAKPFYAIIHRVTGSIIIDFEPVKPYEVPMTAAGALQSYKLAAKAITRLQSLPSGSMERLCDTMVQEVFELTGYDRVMAYKFHEDDHGEVVSEVTKPGLEPYLGLHYPATDIPQAARFLFMKNKVRMIVDCNAKHARVLQDEKLSFDLTLCGSTLRAPHSCHLQYMANMDSIASLVMAVVVNEEDGEGDAPDATTQPQKRKRLWGLVVCHNTTPRFVPFPLRYACEFLAQVFAIHVNKEVELDNQMVEKNILRTQTLLCDMLMRDAPLGIVSQSPNIMDLVKCDGAALLYKDKIWKLGTTPSEFHLQEIASWLCEYHMDSTGLSTDSLHDAGFPRALSLGDSVCGMAAVRISSKDMIFWFRSHTAGEVRWGGAKHDPDDRDDARRMHPRSSFKAFLEVVKTRSLPWKDYEMDAIHSLQLILRNAFKDSETTDVNTKVIYSKLNDLKIDGIQELEAVTSEMVRLIETATVPILAVDSDGLVNGWNTKIAELTGLSVDEAIGKHFLTLVEDSSVEIVKRMLENALEGTEEQNVQFEIKTHLSRADAGPISLVVNACASRDLHENVVGVCFVAHDLTGQKTVMDKFTRIEGDYKAIIQNPNPLIPPIFGTDEFGWCTEWNPAMSKLTGLKREEVIDKMLLGEVFGTQKSCCRLKNQEAFVNLGIVLNNAVTSQDPEKVSFAFFTRGGKYVECLLCVSKKLDREGVVTGVFCFLQLASHELQQALHVQRLAERTAVKRLKALAYIKRQIRNPLSGIMFTRKMIEGTELGPEQRRILQTSALCQKQLSKILDDSDLESIIEGCLDLEMKEFTLNEVLTASTSQVMMKSNGKSVRITNETGEEVMSDTLYGDSIRLQQVLADFMLMAVNFTPSGGQLTVSASLRKDQLGRSVHLANLEIRLTHTGAGIPEFLLNQMFGTEEDVSEEGLSLMVSRKLVKLMNGDVQYLRQAGKSSFIITAELAAANK
partner: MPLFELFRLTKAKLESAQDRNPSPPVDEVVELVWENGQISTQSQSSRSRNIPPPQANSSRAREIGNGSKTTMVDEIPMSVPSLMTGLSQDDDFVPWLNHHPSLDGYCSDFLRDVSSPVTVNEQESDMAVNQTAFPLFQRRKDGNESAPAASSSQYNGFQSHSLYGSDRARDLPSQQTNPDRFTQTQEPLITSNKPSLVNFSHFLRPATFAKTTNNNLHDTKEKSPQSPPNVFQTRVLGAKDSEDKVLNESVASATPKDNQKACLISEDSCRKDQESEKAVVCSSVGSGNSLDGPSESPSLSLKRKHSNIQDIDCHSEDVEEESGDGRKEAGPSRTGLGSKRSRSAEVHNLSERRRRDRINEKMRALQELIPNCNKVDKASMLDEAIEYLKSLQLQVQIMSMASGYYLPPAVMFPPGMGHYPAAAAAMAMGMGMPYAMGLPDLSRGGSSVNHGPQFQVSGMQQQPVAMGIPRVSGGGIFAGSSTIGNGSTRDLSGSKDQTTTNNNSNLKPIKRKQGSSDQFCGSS
B2: Phytochrome B (Arabidopsis thaliana (Mouse-ear cress)), P14713 (parent)
chain: MVSGVGGSGGGRGGGRGGEEEPSSSHTPNNRRGGEQAQSSGTKSLRPRSNTESMSKAIQQYTVDARLHAVFEQSGESGKSFDYSQSLKTTTYGSSVPEQQITAYLSRIQRGGYIQPFGCMIAVDESSFRIIGYSENAREMLGIMPQSVPTLEKPEILAMGTDVRSLFTSSSSILLERAFVAREITLLNPVWIHSKNTGKPFYAILHRIDVGVVIDLEPARTEDPALSIAGAVQSQKLAVRAISQLQALPGGDIKLLCDTVVESVRDLTGYDRVMVYKFHEDEHGEVVAESKRDDLEPYIGLHYPATDIPQASRFLFKQNRVRMIVDCNATPVLVVQDDRLTQSMCLVGSTLRAPHGCHSQYMANMGSIASLAMAVIINGNEDDGSNVASGRSSMRLWGLVVCHHTSSRCIPFPLRYACEFLMQAFGLQLNMELQLALQMSEKRVLRTQTLLCDMLLRDSPAGIVTQSPSIMDLVKCDGAAFLYHGKYYPLGVAPSEVQIKDVVEWLLANHADSTGLSTDSLGDAGYPGAAALGDAVCGMAVAYITKRDFLFWFRSHTAKEIKWGGAKHHPEDKDDGQRMHPRSSFQAFLEVVKSRSQPWETAEMDAIHSLQLILRDSFKESEAAMNSKVVDGVVQPCRDMAGEQGIDELGAVAREMVRLIETATVPIFAVDAGGCINGWNAKIAELTGLSVEEAMGKSLVSDLIYKENEATVNKLLSRALRGDEEKNVEVKLKTFSPELQGKAVFVVVNACSSKDYLNNIVGVCFVGQDVTSQKIVMDKFINIQGDYKAIVHSPNPLIPPIFAADENTCCLEWNMAMEKLTGWSRSEVIGKMIVGEVFGSCCMLKGPDALTKFMIVLHNAIGGQDTDKFPFPFFDRNGKFVQALLTANKRVSLEGKVIGAFCFLQIPSPELQQALAVQRRQDTECFTKAKELAYICQVIKNPLSGMRFANSLLEATDLNEDQKQLLETSVSCEKQISRIVGDMDLESIEDGSFVLKREEFFLGSVINAIVSQAMFLLRDRGLQLIRDIPEEIKSIEVFGDQIRIQQLLAEFLLSIIRYAPSQEWVEIHLSQLSKQMADGFAAIRTEFRMACPGEGLPPELVRDMFHSSRWTSPEGLGLSVCRKILKLMNGEVQYIRESERSYFLIILELPVPRKRPLSTASGSGDMMLMMPY
partner: B1 partner
B3: Phytochrome B (Oryza sativa subsp. japonica (Rice)), Q10MG9 (parent)
chain: MASGSRATPTRSPSSARPAAPRHQHHHSQSSGGSTSRAGGGGGGGGGGGGGAAAAESVSKAVAQYTLDARLHAVFEQSGASGRSFDYTQSLRASPTPSSEQQIAAYLSRIQRGGHIQPFGCTLAVADDSSFRLLAYSENTADLLDLSPHHSVPSLDSSAVPPPVSLGADARLLFAPSSAVLLERAFAAREISLLNPLWIHSRVSSKPFYAILHRIDVGVVIDLEPARTEDPALSIAGAVQSQKLAVRAISRLQALPGGDVKLLCDTVVEYVRELTGYDRVMVYRFHEDEHGEVVAESRRNNLEPYIGLHYPATDIPQASRFLFRQNRVRMIADCHAAPVRVIQDPALTQPLCLVGSTLRSPHGCHAQYMANMGSIASLVMAVIISSGGDDDHNISRGSIPSAMKLWGLVVCHHTSPRCIPFPLRYACEFLMQAFGLQLNMELQLAHQLSEKHILRTQTLLCDMLLRDSPTGIVTQSPSIMDLVKCDGAALYYHGKYYPLGVTPTEVQIKDIIEWLTMCHGDSTGLSTDSLADAGYPGAAALGDAVSGMAVAYITPSDYLFWFRSHTAKEIKWGGAKHHPEDKDDGQRMHPRSSFKAFLEVVKSRSLPWENAEMDAIHSLQLILRDSFRDSAEGTSNSKAIVNGQVQLGELELRGIDELSSVAREMVRLIETATVPIFAVDTDGCINGWNAKVAELTGLSVEEAMGKSLVNDLIFKESEETVNKLLSRALRGDEDKNVEIKLKTFGPEQSKGPIFVIVNACSSRDYTKNIVGVCFVGQDVTGQKVVMDKFINIQGDYKAIVHNPNPLIPPIFASDENTCCSEWNTAMEKLTGWSRGEVVGKLLVGEVFGNCCRLKGPDALTKFMIVLHNAIGGQDCEKFPFSFFDKNGKYVQALLTANTRSRMDGEAIGAFCFLQIASPELQQAFEIQRHHEKKCYARMKELAYIYQEIKNPLNGIRFTNSLLEMTDLKDDQRQFLETSTACEKQMSKIVKDASLQSIEDGSLVLEKGEFSLGSVMNAVVSQVMIQLRERDLQLIRDIPDEIKEASAYGDQYRIQQVLCDFLLSMVRFAPAENGWVEIQVRPNIKQNSDGTDTMLFLFRFACPGEGLPPEIVQDMFSNSRWTTQEGIGLSICRKILKLMGGEVQYIRESERSFFHIVLELPQPQQAASRGTS
partner: B1 partner

Variants of: B1
Conditions: with pif3_arath PIF3, O80536

Row | Variant | effect of a mutation on the interaction
1 | G787E | decreasing interaction
2 | A715V | decreasing interaction

Variants of: B2
Conditions: with pif3_arath PIF3, O80536

Row | Variant | effect of a mutation on the interaction
3 | A750V | decreasing interaction
4 | E812K | decreasing interaction

Variants of: B3
Conditions: with pif3_arath PIF3, O80536

Row | Variant | effect of a mutation on the interaction
5 | A759V | decreasing interaction
6 | E821K | decreasing interaction
